Assay results reported in publication PMC6697693, “head-bent resistant Hsc70 variants show reduced Hsp40 affinity and altered protein folding activity” (Scientific Reports, 2019).

Assays:
[1] = target: T1, Hsc70 A379V (C. elegans, UniProt P09446 1-640, A379V); experiment: AUC; sedimentation velocity with fluorescence detection, 300 nM *BAG-1 with 2 µM Hsc70 variant, 42,000 rpm, 20 °C, 40 mM HEPES/KOH pH 7.5, 150 mM KCl, 1 mM DTT, 5 mM MgCl2; without nucleotide, and with ADP (complex diminished); conditions: both partners purified
T1 construct: Hsc70 (HSP-1) of C. elegans, encoded by hsp-1, with the suppressor mutation A379V; Mutation was found in a mutagenesis screen as a suppressor of unc-23(e25); source: expressed from mutated pET28b-Hsc70 (QuickChange PCR), purified (Ni-NTA, ion-exchange, size exclusion chromatography)

[2] = target: T2, wild type Hsc70 (nematode Hsc70, HSP-1) (C. elegans, UniProt P09446 1-640); experiment: as above; conditions: both partners purified
T2 construct: Hsc70 (HSP-1) of C. elegans, encoded by hsp-1, the sole functional Hsc70-like protein of the nematode; About 70 kDa by ultracentrifugation; also called Hsc70 wild type; CeHsc70; source: expressed from pET28b-Hsc70, purified (Ni-NTA, ion-exchange, size exclusion chromatography)

[3] = target: T3, Hsc70 D233N (C. elegans, UniProt P09446 1-640, D233N); experiment: as above; conditions: both partners purified
T3 construct: Hsc70 (HSP-1) of C. elegans, encoded by hsp-1, with the suppressor mutation D233N; Mutation was found in a mutagenesis screen as a suppressor of unc-23(e25); source: expressed from mutated pET28b-Hsc70 (QuickChange PCR), purified (Ni-NTA, ion-exchange, size exclusion chromatography)

[4] = target: T4, Hsc70 D384N (C. elegans, UniProt P09446 1-640, D384N); experiment: as above; conditions: both partners purified
T4 construct: Hsc70 (HSP-1) of C. elegans, encoded by hsp-1, with the suppressor mutation D384N; Mutation was identified as a suppressor of unc-23(ok1408); source: expressed from mutated pET28b-Hsc70 (QuickChange PCR), purified (Ni-NTA, ion-exchange, size exclusion chromatography)

[5] = target: the molecule itself; experiment: AUC; sedimentation velocity, UV/VIS optics, 0.5 mg/mL protein; dc/dt plots and UltraScan II analysis; oligomerization status of Hsc70 variants

T1 sequence (P09446 whole entry A379V): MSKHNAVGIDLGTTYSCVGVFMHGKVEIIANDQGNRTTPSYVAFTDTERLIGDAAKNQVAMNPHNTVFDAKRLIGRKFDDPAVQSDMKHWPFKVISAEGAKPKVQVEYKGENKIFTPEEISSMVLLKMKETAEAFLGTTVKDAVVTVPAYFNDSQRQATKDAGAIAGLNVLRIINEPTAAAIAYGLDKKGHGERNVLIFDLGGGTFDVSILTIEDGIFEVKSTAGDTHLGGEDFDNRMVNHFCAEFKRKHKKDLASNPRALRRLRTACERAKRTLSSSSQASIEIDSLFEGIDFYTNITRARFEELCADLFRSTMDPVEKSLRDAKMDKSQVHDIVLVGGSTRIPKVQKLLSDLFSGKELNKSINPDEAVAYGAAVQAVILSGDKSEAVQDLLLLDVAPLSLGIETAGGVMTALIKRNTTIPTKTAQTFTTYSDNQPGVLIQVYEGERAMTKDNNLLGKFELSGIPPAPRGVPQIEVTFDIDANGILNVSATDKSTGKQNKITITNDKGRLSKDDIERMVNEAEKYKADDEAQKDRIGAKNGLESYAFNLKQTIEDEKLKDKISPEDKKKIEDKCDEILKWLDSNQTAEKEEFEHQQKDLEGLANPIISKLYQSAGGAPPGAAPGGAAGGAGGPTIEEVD
T2 sequence (P09446 whole entry): as the sequence (P09446 whole entry A379V) above, with V379A counted along it
T3 sequence (P09446 whole entry D233N): as the sequence (P09446 whole entry A379V) above, with D233N, V379A counted along it
T4 sequence (P09446 whole entry D384N): as the sequence (P09446 whole entry A379V) above, with V379A, D384N counted along it

B1: BAG-1 (nematode nucleotide exchange factor), fluorescently labelled (natural protein, C. elegans, UniProt O44739 1-210, looked up)
chain: MKVNVSCSSVQTTIDILEENQGEDESILTLGQLRDRIATDNDVDVETMKLLHRGKFLQGADDVSLSTLNFKENDKIIVMGGKNALVDDAGFKMLMQYEKHNLSNLQKAYDLNLRDVADLERGFLEKPKQVEMGKKLEKKVKYFNEEAERHLETLDGMNIITETTPENQAKRNREKRKTLVNGIQTLLNQNDALLRRLQEYQSVLNGDIPE
modifications: ATTO 488 C5-maleimide at its cysteine residue
notes: BAG-1, nucleotide exchange factor of Hsc70 in C. elegans; unlabelled BAG-1 was used in the ATPase assays
[1]
  binding result: binds
[2]
  binding result: binds
[3]
  binding result: binds
[4]
  binding result: binds

B2: Hsc70 S321F (natural protein)
chain: not shown
notes: Hsc70 (HSP-1) of C. elegans, encoded by hsp-1, with the suppressor mutation S321F; forms heterogeneous oligomers; source: expressed from mutated pET28b-Hsc70 (QuickChange PCR), purified (Ni-NTA, ion-exchange, size exclusion chromatography)
[5]
  binding result: binds
